This is an account of results in IntAct's records for PubMed 29892012.

B1: Coiled-coil alpha-helical rod protein 1 (Homo sapiens), Q8TD31 (parent)
chain: MFPPSGSTGLIPPSHFQARPLSTLPRMAPTWLSDIPLVQPPGHQDVSERRLDTQRPQVTMWERDVSSDRQEPGRRGRSWGLEGSQALSQQAEVIVRQLQELRRLEEEVRLLRETSLQQKMRLEAQAMELEALARAEKAGRAEAEGLRAALAGAEVVRKNLEEGSQRELEEVQRLHQEQLSSLTQAHEEALSSLTSKAEGLEKSLSSLETRRAGEAKELAEAQREAELLRKQLSKTQEDLEAQVTLVENLRKYVGEQVPSEVHSQTWELERQKLLETMQHLQEDRDSLHATAELLQVRVQSLTHILALQEEELTRKVQPSDSLEPEFTRKCQSLLNRWREKVFALMVQLKAQELEHSDSVKQLKGQVASLQEKVTSQSQEQAILQRSLQDKAAEVEVERMGAKGLQLELSRAQEARRRWQQQTASAEEQLRLVVNAVSSSQIWLETTMAKVEGAAAQLPSLNNRLSYAVRKVHTIRGLIARKLALAQLRQESCPLPPPVTDVSLELQQLREERNRLDAELQLSARLIQQEVGRAREQGEAERQQLSKVAQQLEQELQQTQESLASLGLQLEVARQGQQESTEEAASLRQELTQQQELYGQALQEKVAEVETRLREQLSDTERRLNEARREHAKAVVSLRQIQRRAAQEKERSQELRRLQEEARKEEGQRLARRLQELERDKNLMLATLQQEGLLSRYKQQRLLTVLPSLLDKKKSVVSSPRPPECSASAPVAAAVPTRESIKGSLSVLLDDLQDLSEAISKEEAVCQGDNLDRCSSSNPQMSS
partner: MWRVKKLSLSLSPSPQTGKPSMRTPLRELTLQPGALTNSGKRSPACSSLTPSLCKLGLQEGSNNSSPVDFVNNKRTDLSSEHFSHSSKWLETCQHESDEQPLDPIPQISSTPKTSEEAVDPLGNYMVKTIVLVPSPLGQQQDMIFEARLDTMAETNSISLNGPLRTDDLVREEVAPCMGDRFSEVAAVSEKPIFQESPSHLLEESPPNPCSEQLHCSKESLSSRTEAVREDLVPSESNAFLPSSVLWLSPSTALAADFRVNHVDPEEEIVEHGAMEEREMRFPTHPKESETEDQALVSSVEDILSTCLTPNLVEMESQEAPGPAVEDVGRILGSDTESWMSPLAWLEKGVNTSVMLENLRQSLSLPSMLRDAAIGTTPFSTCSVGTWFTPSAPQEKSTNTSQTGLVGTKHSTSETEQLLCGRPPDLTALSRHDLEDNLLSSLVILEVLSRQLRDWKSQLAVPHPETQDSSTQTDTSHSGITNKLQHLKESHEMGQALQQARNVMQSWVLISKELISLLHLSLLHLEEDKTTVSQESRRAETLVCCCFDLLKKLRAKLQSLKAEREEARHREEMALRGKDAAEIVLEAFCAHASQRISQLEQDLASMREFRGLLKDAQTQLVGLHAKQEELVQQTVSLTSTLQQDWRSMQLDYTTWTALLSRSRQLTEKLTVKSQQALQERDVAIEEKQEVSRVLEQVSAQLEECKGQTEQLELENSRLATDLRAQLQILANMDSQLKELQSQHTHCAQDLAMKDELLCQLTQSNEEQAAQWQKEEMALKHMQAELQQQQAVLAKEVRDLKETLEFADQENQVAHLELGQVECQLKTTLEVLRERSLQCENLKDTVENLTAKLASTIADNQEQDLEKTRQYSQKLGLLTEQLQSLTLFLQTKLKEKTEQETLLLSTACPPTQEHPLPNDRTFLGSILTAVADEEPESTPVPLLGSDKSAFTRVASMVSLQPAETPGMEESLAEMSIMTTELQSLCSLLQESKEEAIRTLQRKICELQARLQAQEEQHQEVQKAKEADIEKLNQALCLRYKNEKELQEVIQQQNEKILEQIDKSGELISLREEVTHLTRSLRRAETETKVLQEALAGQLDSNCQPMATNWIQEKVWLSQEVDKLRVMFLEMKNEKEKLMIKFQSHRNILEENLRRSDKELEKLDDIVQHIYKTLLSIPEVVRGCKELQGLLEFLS
B2: TBC1 domain family member 22B (Homo sapiens), Q9NU19 (parent)
chain: MAAENSKQFWKRSAKLPGSIQPVYGAQHPPLDPRLTKNFIKERSKVNTVPLKNKKASSFHEFARNTSDAWDIGDDEEEDFSSPSFQTLNSKVALATAAQVLENHSKLRVKPERSQSTTSDVPANYKVIKSSSDAQLSRNSSDTCLRNPLHKQQSLPLRPIIPLVARISDQNASGAPPMTVREKTRLEKFRQLLSSQNTDLDELRKCSWPGVPREVRPITWRLLSGYLPANTERRKLTLQRKREEYFGFIEQYYDSRNEEHHQDTYRQIHIDIPRTNPLIPLFQQPLVQEIFERILFIWAIRHPASGYVQGINDLVTPFFVVFLSEYVEEDVENFDVTNLSQDMLRSIEADSFWCMSKLLDGIQDNYTFAQPGIQKKVKALEELVSRIDEQVHNHFRRYEVEYLQFAFRWMNNLLMRELPLRCTIRLWDTYQSEPEGFSHFHLYVCAAFLIKWRKEILDEEDFQGLLMLLQNLPTIHWGNEEIGLLLAEAYRLKYMFADAPNHYRR
partner: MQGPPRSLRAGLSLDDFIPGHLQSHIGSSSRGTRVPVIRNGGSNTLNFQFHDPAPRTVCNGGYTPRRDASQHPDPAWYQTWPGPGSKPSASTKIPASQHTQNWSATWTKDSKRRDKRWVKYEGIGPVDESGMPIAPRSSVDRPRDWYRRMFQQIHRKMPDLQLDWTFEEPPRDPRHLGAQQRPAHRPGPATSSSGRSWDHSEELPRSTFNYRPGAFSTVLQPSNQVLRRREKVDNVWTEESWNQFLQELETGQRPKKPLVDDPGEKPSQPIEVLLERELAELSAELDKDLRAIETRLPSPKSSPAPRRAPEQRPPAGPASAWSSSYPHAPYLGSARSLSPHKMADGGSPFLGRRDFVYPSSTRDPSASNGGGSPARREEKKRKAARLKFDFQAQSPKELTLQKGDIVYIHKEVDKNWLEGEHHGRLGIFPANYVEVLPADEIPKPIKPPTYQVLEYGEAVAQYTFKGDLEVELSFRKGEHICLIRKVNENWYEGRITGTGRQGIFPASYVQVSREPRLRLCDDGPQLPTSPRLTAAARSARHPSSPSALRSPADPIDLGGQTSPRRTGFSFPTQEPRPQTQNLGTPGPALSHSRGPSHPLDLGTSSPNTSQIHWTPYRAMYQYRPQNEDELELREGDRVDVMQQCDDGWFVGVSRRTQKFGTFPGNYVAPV
B3: Myotubularin-related protein 9 (Homo sapiens), Q96QG7 (parent)
chain: MEFAELIKTPRVDNVVLHRPFYPAVEGTLCLTGHHLILSSRQDNTEELWLLHSNIDAIDKRFVGSLGTIIIKCKDFRIIQLDIPGMEECLNIASSIEALSTLDSITLMYPFFYRPMFEVIEDGWHSFLPEQEFELYSSATSEWRLSYVNKEFAVCPSYPPIVTVPKSIDDEALRKVATFRHGGRFPVLSYYHKKNGMVIMRSGQPLTGTNGRRCKEDEKLINATLRAGKRGYIIDTRSLNVAQQTRAKGGGFEQEAHYPQWRRIHKSIERYHILQESLIKLVEACNDQTHNMDRWLSKLEASNWLTHIKEILTTACLAAQCIDREGASILIHGTEGTDSTLQVTSLAQIILEPRSRTIRGFEALIEREWLQAGHPFQQRCAQSAYCNTKQKWEAPVFLLFLDCVWQILRQFPCSFEFNENFLIMLFEHAYASQFGTFLGNNESERCKLKLQQKTMSLWSWVNQPSELSKFTNPLFEANNLVIWPSVAPQSLPLWEGIFLRWNRSSKYLDEAYEEMVNIIEYNKELQAKVNILRRQLAELETEDGMQESP
partner: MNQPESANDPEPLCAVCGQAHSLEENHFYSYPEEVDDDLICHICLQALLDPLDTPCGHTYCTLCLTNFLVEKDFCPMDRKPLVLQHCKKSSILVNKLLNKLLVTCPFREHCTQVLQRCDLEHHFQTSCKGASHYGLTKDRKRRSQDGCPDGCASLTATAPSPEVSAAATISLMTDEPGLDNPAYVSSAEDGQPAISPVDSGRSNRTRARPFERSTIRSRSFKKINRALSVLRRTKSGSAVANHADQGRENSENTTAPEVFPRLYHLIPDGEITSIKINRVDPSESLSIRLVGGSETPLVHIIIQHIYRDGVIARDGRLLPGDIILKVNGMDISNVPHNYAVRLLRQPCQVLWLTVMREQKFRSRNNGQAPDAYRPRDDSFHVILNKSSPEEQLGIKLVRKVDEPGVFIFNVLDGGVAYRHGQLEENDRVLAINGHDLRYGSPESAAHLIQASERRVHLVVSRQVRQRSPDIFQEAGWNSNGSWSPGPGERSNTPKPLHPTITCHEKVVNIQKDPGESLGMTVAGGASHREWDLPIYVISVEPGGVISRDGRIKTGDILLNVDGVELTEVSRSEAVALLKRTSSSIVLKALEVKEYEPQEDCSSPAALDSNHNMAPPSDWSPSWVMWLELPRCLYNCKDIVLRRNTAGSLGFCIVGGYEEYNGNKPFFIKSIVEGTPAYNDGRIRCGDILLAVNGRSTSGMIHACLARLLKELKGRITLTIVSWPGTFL
B4: Coiled-coil alpha-helical rod protein 1 (Homo sapiens), Q8TD31 (parent)
chain: B1 chain
partner: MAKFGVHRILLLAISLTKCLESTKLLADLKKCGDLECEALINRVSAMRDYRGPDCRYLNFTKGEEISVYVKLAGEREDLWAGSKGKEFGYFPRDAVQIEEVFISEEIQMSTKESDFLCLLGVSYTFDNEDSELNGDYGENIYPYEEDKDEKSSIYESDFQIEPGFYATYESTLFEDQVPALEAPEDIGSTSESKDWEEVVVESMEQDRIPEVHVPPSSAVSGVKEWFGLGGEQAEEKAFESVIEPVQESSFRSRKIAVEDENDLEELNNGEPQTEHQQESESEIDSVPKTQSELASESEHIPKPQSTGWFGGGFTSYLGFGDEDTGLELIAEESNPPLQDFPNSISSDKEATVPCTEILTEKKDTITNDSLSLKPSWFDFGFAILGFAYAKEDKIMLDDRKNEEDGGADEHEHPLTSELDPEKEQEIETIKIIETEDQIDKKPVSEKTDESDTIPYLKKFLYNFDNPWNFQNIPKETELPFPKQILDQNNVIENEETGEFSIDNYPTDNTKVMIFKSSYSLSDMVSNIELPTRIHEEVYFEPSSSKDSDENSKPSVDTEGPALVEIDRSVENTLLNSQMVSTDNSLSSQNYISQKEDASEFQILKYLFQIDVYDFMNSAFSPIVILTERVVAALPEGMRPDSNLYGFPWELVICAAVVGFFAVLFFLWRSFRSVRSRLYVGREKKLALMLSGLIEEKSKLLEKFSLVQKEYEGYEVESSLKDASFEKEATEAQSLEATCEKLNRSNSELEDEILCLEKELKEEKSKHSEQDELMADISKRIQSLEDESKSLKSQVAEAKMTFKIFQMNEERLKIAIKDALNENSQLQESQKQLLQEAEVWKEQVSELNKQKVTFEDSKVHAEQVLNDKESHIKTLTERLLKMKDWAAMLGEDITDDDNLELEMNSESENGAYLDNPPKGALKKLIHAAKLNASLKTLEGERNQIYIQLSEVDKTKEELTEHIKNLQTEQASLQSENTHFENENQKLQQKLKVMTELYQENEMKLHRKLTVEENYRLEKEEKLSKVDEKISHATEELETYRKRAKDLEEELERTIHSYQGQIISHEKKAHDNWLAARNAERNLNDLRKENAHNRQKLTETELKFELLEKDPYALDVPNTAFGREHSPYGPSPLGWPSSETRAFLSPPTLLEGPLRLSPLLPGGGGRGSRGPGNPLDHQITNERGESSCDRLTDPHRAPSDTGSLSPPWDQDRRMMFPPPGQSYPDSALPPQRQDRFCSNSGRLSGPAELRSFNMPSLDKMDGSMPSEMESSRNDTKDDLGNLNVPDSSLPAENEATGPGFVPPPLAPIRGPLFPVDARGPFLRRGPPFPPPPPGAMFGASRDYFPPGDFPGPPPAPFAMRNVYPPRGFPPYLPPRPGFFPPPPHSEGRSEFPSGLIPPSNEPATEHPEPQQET

The variants in one assay derive from B1. The following applies: with spag5_human SPAG5, Q96R06.
With W337R, the “effect of a mutation on the interaction” value is “disrupting interaction strength”.

The variants in another assay derive from B2. The following applies: with vinex_human SORBS3, O60504.
As to A349T, the “effect of a mutation on the interaction” value is reported as “disrupting interaction strength”.

Variants of B3 are the subject of the next assay. The conditions noted are these: with lnx1_human LNX1, Q8TBB1.
As for R359S, the “effect of a mutation on the interaction” value is on record as “with no effect”.

Variants of B4 are the subject of another assay. The following applies: with mia2_human MIA2, Q96PC5.
W337R: the “effect of a mutation on the interaction” value is on record as “disrupting interaction strength”.
